Data published in patent US20260098102A1 (NATIONAL UNIVERSITY CORPORATION KOBE UNIVERSITY, published 2026).

How the values were obtained:
SIRPA_V1_IgV = target: T1, SIRPA_V1_IgV (human, UniProt P78324 31-149); assay: SPR Biacore T200, antibody captured on anti-human IgG (Fc), SIRPA_V1_IgV as analyte (0.25 to 16 nM), 1:1 model
T1 construct: Secreted recombinant protein from FreeStyle 293F cells
Description: (§1) The dissociation constants were measured by a capture method comprising capturing each antibody as a ligand to an Anti-Human IgG (Fc) antibody immobilized using Human Antibody Capture Kit (GE Healthcare Bioscience Corp.) and measuring an antigen as an analyte, using Biacore T200 (GE Healthcare Bioscience Corp.). HBS-EP+ (GE Healthcare Bioscience Corp.) was used as a running buffer, and CM5 (GE Healthcare Bioscience Corp.) was used as a sensor chip. Onto the chip, 2 μg/mL of various antibodies were added at 10 μL/min for 30 seconds, then a serially diluted solution (0.25 to 16 nM) of the human SIRPA protein as an antigen was added at a flow rate of 30 μL/min for 120 seconds, and subsequently the dissociation phase for 600 seconds was monitored. As a regenerant, 3 M magnesium chloride (GE Healthcare Bioscience Corp.) was added at a flow rate of 20 μL/min for 30 seconds. For data analysis, a binding rate constant (ka), a dissociation rate constant (kd), and a dissociation constant (KD; KD=kd/ka) were calculated using a 1:1 binding model.

SIRPA_V2_IgV = target: T2, SIRPA_V2_IgV (human); assay: SPR Biacore T200, antibody captured on anti-human IgG (Fc), SIRPA_V2_IgV as analyte (0.25 to 16 nM), 1:1 model
T2 construct: Secreted recombinant protein; The crystal model held residues 33 to 143 of human SIRPA Variant 2
Description: as §1

human SIRPA_V1 protein = target: T3, human SIRPA_V1 protein (human, UniProt P78324 31-504); assay: blocking cell-based ELISA: peroxidase-labeled CD47-Fc (1 µg/mL) on 293α cells expressing SIRPA_V1
T3 construct: Expressed on 293α cells from pcDNA3.2 V5-DEST or pFLAG V5-DEST (FLAG-tagged) vectors; also called human SIRPA Variant 1; hSIRPA V1
Description: (§2) After the culture supernatant of the human SIRPA_V1 or V2 expression vector-introduced 293 cells prepared in Example 9)-1 was removed, 50 μL per well of various anti-SIRPA antibodies or various control Human IgG diluted with 5% FBS-containing PBS to a final concentration of 0 to 10,000 ng/ml was added to each of pcDNA3.2 V5-DEST-SIRPA_V1 or V2-introduced 293α cells, immediately followed by addition of 50 µL per well of peroxidase-labeled CD47-Fc prepared with 5% FBS-containing PBS at 1 μg/mL, and the mixture was allowed to stand at 4° C. for one hour. Thereafter, the SIRPA-CD47 binding inhibitory activity was evaluated in the same manner as in 1)-6-3.

human SIRPA_V2 protein = target: T4, human SIRPA_V2 protein (human, UniProt P78324 31-504); assay: blocking cell-based ELISA: peroxidase-labeled CD47-Fc (1 µg/mL) on 293α cells expressing SIRPA_V2
T4 construct: Expressed on 293α cells from pcDNA3.2 V5-DEST or pFLAG V5-DEST (FLAG-tagged) vectors; also called human SIRPA Variant 2; ECD variant (full-length, amino acids 1 to 504)
Description: as §2

human SIRPB = target: T5, human SIRPB (human, UniProt O00241 30-398); assay: flow cytometry on CHO-K1 cells expressing FLAG-tagged human SIRPB; PE anti-human IgG; MFI standardized to secondary antibody alone
T5 construct: whole, on cells; FLAG-tagged (pFLAG V5-DEST), on CHO-K1 cells; also called SIRPβ1; signal regulatory protein β1
Description: SIRPβ1 (signal regulatory protein β1: the amino acid sequence thereof is published as RefSeq accession number NP_006056) and SIRPγ (signal regulatory protein γ: the amino acid sequence thereof is published as RefSeq accession number NP_061026) are molecules belonging to the SIRPA family. In the present invention, “SIRPα” may be referred to as “SIRPA,” “SIRPβ1” may be referred to as […] and “SIRPγ” may be referred to as “SIRPG.” CHO-K1 cells were prepared in a 10% FBS-containing Ham's F-12K medium at 3.3×10⁵ cells/mL and cultured overnight at 37° C. under a 5% CO₂ condition. pFLAG V5-DEST-human SIRPβ, pFLAG V5-DEST-human SIRPG, or pFLAG V5-DEST was introduced into the cells using Lipofectamine LTX (Invitrogen), and cells were cultured in a 10% FBS-containing Ham's F-12K medium at 37° C. under a 5% CO₂ condition for 24 hours. The obtained introduced cells were collected and seeded on a 96-well plate. After the culture supernatant was removed, 100 μL per well of various anti-human SIRPA antibodies or various control human IgG was added to each of various gene introduced cells at a final concentration of 0 to 10,000 ng/mL, and the mixture was allowed to stand at 4° C. for 25 minutes. After the mixture was centrifuged, the supernatant was removed, and cells were washed twice with 5% FBS-containing PBS. After the mixture was centrifuged, the supernatant was removed, 50 μL per well of a 1/400 diluted solution of PE Mouse anti-Human IgG antibody (BioLegend) was added, and the mixture was allowed to stand at 4° C. for 25 minutes. After the mixture was centrifuged, the supernatant was removed, and cells were washed twice with 5% FBS-containing PBS.
(§3) After the mixture was centrifuged, and the supernatant was removed, cells were suspended in 100 μL per well of 1× BD Stabilizing Fixative (Becton Dickinson), and the cell count was measured by flow cytometry (FACS Canto II: Becton Dickinson). For data analysis, FlowJo (TreeStar) was used. Cells were characterized by detecting forward scattered (FSC) light and side-scattered (SSC) light, and then the mean fluorescence intensity of PE was calculated. Binding of various antibodies to the family molecules was calculated by standardizing the fluorescence intensity using the mean fluorescence intensity of a sample in which the secondary antibody alone was allowed to react.

human SIRPG = target: T6, human SIRPG (human, UniProt Q9P1W8 29-387); assay: flow cytometry on CHO-K1 cells expressing FLAG-tagged human SIRPG; PE anti-human IgG; MFI standardized to secondary antibody alone
T6 construct: whole, on cells; FLAG-tagged (pFLAG V5-DEST), on CHO-K1 cells; also called SIRPγ; signal regulatory protein γ
Description: SIRPβ1 (signal regulatory protein β1: the amino acid sequence thereof is published as RefSeq accession number NP_006056) and SIRPγ (signal regulatory protein γ: the amino acid sequence thereof is published as RefSeq accession number NP_061026) are molecules belonging to the SIRPA family. In the present invention, “SIRPα” may be referred to as “SIRPA,” “SIRPβ1” may be referred to as […] and “SIRPγ” may be referred to as “SIRPG.” CHO-K1 cells were prepared in a 10% FBS-containing Ham's F-12K medium at 3.3×10⁵ cells/mL and cultured overnight at 37° C. under a 5% CO₂ condition. pFLAG V5-DEST-human SIRPβ, pFLAG V5-DEST-human SIRPG, or pFLAG V5-DEST was introduced into the cells using Lipofectamine LTX (Invitrogen), and cells were cultured in a 10% FBS-containing Ham's F-12K medium at 37° C. under a 5% CO₂ condition for 24 hours. The obtained introduced cells were collected and seeded on a 96-well plate. After the culture supernatant was removed, 100 μL per well of various anti-human SIRPA antibodies or various control human IgG was added to each of various gene introduced cells at a final concentration of 0 to 10,000 ng/mL, and the mixture was allowed to stand at 4° C. for 25 minutes. After the mixture was centrifuged, the supernatant was removed, and cells were washed twice with 5% FBS-containing PBS. […]
as §3, with “For data analysis, FlowJo (TreeStar) was used.” left out

T4 sequence (P78324 other isoform, or with tags, fused parts or gaps limits assumed): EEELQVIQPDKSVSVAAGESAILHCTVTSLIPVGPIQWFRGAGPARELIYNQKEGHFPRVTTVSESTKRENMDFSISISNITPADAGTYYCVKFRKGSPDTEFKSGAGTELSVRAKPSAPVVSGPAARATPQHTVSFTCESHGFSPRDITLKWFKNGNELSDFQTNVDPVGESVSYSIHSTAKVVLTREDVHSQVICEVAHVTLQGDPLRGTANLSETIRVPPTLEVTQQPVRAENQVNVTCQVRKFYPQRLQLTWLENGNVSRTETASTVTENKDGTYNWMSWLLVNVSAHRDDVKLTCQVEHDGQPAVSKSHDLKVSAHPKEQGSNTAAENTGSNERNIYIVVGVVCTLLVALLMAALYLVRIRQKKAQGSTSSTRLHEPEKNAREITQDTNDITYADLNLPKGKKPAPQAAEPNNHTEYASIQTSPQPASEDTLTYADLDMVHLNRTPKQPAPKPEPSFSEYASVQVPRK
T5 sequence (O00241 30-398): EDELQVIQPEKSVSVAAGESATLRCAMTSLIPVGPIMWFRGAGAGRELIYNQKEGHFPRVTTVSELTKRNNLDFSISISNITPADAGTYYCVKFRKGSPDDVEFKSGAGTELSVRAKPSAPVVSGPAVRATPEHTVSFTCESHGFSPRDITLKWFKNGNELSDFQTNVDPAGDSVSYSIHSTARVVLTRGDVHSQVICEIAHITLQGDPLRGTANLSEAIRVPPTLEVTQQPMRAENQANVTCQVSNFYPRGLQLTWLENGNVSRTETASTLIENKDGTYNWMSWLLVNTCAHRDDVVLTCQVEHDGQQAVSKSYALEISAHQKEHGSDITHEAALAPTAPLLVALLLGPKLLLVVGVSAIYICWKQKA
T6 sequence (Q9P1W8 29-387): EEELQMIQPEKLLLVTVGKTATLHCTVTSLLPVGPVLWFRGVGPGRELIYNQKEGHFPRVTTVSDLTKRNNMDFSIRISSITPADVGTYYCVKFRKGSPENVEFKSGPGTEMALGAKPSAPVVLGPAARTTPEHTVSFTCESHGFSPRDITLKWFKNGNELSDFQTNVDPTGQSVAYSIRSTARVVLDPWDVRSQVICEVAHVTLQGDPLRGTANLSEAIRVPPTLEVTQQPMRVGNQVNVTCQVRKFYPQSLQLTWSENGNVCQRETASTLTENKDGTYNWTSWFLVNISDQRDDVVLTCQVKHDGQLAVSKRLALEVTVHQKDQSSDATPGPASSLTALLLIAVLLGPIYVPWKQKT
T3 sequence (P78324 31-504 limits assumed): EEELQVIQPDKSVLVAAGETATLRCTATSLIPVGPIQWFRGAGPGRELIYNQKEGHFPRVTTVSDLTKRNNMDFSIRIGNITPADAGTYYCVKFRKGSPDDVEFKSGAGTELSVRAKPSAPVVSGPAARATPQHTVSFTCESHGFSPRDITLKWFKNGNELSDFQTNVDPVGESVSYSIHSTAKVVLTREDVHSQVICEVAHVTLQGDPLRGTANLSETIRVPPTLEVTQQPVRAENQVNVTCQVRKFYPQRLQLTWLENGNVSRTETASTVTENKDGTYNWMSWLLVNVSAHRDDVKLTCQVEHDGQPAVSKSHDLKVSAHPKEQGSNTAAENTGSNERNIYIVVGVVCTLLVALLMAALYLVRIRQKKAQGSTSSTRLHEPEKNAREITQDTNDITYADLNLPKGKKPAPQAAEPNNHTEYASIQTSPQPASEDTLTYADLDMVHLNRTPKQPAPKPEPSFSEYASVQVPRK
T2 sequence (chain, as listed by the source limits assumed): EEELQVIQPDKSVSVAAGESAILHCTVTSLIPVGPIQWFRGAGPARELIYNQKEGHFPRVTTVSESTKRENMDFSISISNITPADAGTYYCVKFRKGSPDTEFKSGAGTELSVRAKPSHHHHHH
T1 sequence (P78324 other isoform, or with tags, fused parts or gaps limits assumed): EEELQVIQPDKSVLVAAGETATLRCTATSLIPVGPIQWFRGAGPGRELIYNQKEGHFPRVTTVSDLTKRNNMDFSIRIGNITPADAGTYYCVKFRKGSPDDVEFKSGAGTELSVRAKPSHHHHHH

B1: ADU-1805 (antibody, human IgG2, kappa, V domains shown)
VH: EVQLVQSGAEVVKPGASVKLSCKASGSTFTSYWMHWVKQAPGQGLEWIGAIYPVNSDTTYNQKFKGKATLTVDKSASTAYMELSSLRSEDTAVYYCTRSFYYSLDAAWFVYWGQGTLVTVSS
VL: DIQMTQSPSSLSASVGDRVTITCRASQDIGSRLNWLQQKPGKAPKRLIYATSSLDSGVPSRFSGSGSGTEFTLTISSLQPEDFATYYCLQYASSPFTFGGGTKVEIKR
notes: IgG2 heavy chain; also called ADU-1805_hG2 / ADU-1805_hK
B1 was tested, and the Kd (SIRPA_V1_IgV) was 4.39 nM, the Kd (SIRPA_V2_IgV) was 6.32 nM and the IC50 (human SIRPA_V1 protein) was 2.97 µg/mL. For the same binder, the IC50 (human SIRPA_V2 protein) was 2.12 µg/mL, the “EC50 (read off the curve)” value (human SIRPB) was roughly 0.2 µg/mL and the binding result (human SIRPG) was “binds”.
